Laboratory results from paper PMC8270905, “Structural basis of LAIR1 targeting by polymorphic Plasmodium RIFINs” (Nature Communications, 2021).

T1: RIFIN (PF3D7_1040300) V2 domain, His-tagged (Plasmodium falciparum 3D7, UniProt Q8IJ06 184-328)
T1 construct: RIFIN PF3D7_1040300 (RIF1) of Plasmodium falciparum 3D7, variable domain 2 (V2); PDB 7JZI holds the V2 domain of this RIFIN; also called RIF1; source: Expi293F or Expi293 GnTI- cells, transfected
T1 sequence: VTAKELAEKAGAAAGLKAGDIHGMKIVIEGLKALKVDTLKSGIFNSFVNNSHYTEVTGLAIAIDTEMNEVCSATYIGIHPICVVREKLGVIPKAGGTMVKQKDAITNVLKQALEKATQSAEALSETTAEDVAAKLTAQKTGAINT

B1: native human LAIR1 (receptor)
chain: QEEDLPRPSISAEPGTVIPLGSHVTFVCRGPVGVQTFRLERDSRSTYNDTEDVSQASPSESEARFRIDSVREGNAGLYRCIYYKPPKWSEQSDYLELLVKE
modifications: N-linked glycosylation at N153 (MGD21 numbering)
notes: Leukocyte-associated immunoglobulin-like receptor 1 (LAIR1), human, unmutated; Probably the same limits as the MGD21 LAIR1 ectodomain; also called hLAIR1; unmutated (native) LAIR1; source: Expi293F or Expi293 GnTI- cells, transfected

Legend:
[1] = molecular target: RIFIN (co-IP of the LAIR1 mutation series, Fig. 2c) (Plasmodium falciparum 3D7); assay: co-IP; conditioned media incubated with protein A resin for one hour at room temperature; Fc-tagged RIFIN or LAIR1 pulled down, partner without Fc co-pulled down; SDS-PAGE, Coomassie blue, bands quantified with ImageJ
[2] = molecular target: RIFIN (co-IP of the LAIR1 mutation series, Fig. 2c); assay: co-immunoprecipitation (Protein A Co-IP, SDS-PAGE band quantification); details: LAIR1 Fc tag; RIFIN-V2 MBP tag; n = 3 independent measurements; parent: est. 3.0; read off a plot
[3] = molecular target: T1, RIFIN (PF3D7_1040300) V2 domain, …; assay: BLI; fortéBio Octet Red384; His-tagged RIFIN V2 domain immobilised on Ni-NTA biosensors, dipped into LAIR1 or MGD21 in a twofold concentration series; global fit, 1:1 Langmuir model; details: both partners purified

Molecule | fold increase in affinity over native LAIR1 [1] [fold] | other: % pulldown vs MGD21 (% of MGD21 LAIR1 pulldown) [2] | further results
LAIR1 N153S (receptor) | 10 | – | –
LAIR1 T151L (receptor) | 10 | – | –
native human LAIR1 (from UniProt Q6GTX8) T151L; N153S | – | 66 | –
native human LAIR1 (from UniProt Q6GTX8) T151L; N153S; A161T; P190S; P191R | – | 58 | –
native human LAIR1 (from UniProt Q6GTX8) T151L; N153S; P190S; P191R | – | 62 | –
B1 | – | – | Kd [3]: > 1000 nM
